Laboratory results: paper PMC3938430, “Biochemical Characterization of a Haloalkane Dehalogenase DadB from Alcanivorax dieselolei B-5” (PLoS ONE, 2014)

How the values were obtained:
Experiment in all cases: steady-state kinetics, gas chromatography (FID)
DadB = molecular target: T1, DadB (Alloalcanivorax dieselolei, UniProt K0CAI2); assay type: biochemical; conditions: 100 mM glycine buffer, pH 8.6, 37°C; substrate self-inhibition constant
T1 construct: gene B5T_00392; HLD-II subfamily, nucleophile D108
Text: (§1) steady-state kinetics, gas chromatography (FID) on DadB

BrCCBr = test system: T2, BrCCBr; assay type: biochemical, Alloalcanivorax dieselolei; conditions: 100 mM glycine buffer, pH 8.6, 37°C
T2 construct: HLD-II subfamily, nucleophile D108
Text: as §1

CCCCCl = assay type: biochemical, Alloalcanivorax dieselolei; conditions: 100 mM glycine buffer, pH 8.6, 37°C
Text: as §1

N#CCCCBr = assay type: biochemical, Alloalcanivorax dieselolei; conditions: 100 mM glycine buffer, pH 8.6, 37°C, fit with substrate inhibition
Text: as §1

C=C(C)CCl = test system: T3, C=C(C)CCl; assay type: biochemical, Alloalcanivorax dieselolei; conditions: 100 mM glycine buffer, pH 8.6, 37°C
T3 construct: HLD-II subfamily, nucleophile D108
Text: as §1

BrCCCBr = assay type: biochemical, Alloalcanivorax dieselolei; conditions: 100 mM glycine buffer, pH 8.6, 37°C
Text: as §1

C=C(Cl)CCl = test system: T4, C=C(Cl)CCl; assay type: biochemical, Alloalcanivorax dieselolei; conditions: 100 mM glycine buffer, pH 8.6, 37°C
T4 construct: HLD-II subfamily, nucleophile D108
Text: as §1

N#CCCCBr [4-bromobutanenitrile]
k i (DadB): 17.93 ± 1.97 mM

DadB (Alloalcanivorax dieselolei B5)
Km (BrCCBr): 8.70 ± 0.44 mM | kcat (BrCCBr): 17.9 ± 0.5 s⁻¹ | kcat/Km (BrCCBr): 2060 M⁻¹ s⁻¹ | Km (CCCCCl): 4.88 ± 0.35 mM | kcat (CCCCCl): 1.17 ± 0.1 s⁻¹ | kcat/Km (CCCCCl): 240 M⁻¹ s⁻¹ | Km (N#CCCCBr): 8.47 ± 1.27 mM | kcat (N#CCCCBr): 30.8 ± 2.49 s⁻¹ | kcat/Km (N#CCCCBr): 3640 M⁻¹ s⁻¹ | Km (C=C(C)CCl): 11.33 ± 0.99 mM | kcat (C=C(C)CCl): 34.3 ± 1.99 s⁻¹ | kcat/Km (C=C(C)CCl): 3020 M⁻¹ s⁻¹ | Km (BrCCCBr): 0.82 ± 0.04 mM | kcat (BrCCCBr): 13.4 ± 0.99 s⁻¹ | kcat/Km (BrCCCBr): 16400 M⁻¹ s⁻¹ | Km (C=C(Cl)CCl): 15.06 ± 1.37 mM | kcat (C=C(Cl)CCl): 20.1 ± 1.09 s⁻¹ | kcat/Km (C=C(Cl)CCl): 1330 M⁻¹ s⁻¹
